From article PMC1409677 come the findings set out here.

This data set deals with human alpha-thrombin (Homo sapiens, UniProt P00734;P00734 328-363;364-622). Description: FRET.

Take TAAGTTCATCTCGGTTGGTGTGGTTGG (structured_DNA) [APT (thrombin aptamer with 12 nt 5' toehold)]: the binding result was “binds”.
